Test results published in patent US20160297889A1 (TORAY INDUSTRIES, published 2016).
Substitutions are numbered along the chain they refer to.

T1: CAPRIN-1 protein expressed on the membrane surface of human cancer cells (human, UniProt Q14444 2-709)
T1 sequence (looked up): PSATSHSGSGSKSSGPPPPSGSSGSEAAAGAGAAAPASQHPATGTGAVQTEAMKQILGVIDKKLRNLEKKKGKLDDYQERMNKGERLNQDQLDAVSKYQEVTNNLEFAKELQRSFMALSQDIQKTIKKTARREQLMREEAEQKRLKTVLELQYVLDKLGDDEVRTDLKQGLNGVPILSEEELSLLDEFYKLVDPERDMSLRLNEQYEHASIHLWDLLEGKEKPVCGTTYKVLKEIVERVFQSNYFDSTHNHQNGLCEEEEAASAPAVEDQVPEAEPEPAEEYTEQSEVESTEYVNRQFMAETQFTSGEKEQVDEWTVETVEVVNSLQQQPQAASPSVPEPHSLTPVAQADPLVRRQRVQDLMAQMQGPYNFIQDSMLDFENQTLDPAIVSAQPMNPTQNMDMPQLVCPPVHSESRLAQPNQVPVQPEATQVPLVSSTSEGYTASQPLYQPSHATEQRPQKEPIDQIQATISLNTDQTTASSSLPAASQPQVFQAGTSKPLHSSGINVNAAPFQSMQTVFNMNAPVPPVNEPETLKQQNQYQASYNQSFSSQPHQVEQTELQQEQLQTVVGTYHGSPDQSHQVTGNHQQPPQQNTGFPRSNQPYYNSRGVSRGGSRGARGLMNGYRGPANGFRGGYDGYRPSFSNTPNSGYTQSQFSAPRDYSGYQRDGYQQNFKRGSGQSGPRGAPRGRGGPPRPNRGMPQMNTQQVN

B1: human-rabbit chimeric anti-CAPRIN-1 antibody (antibody, V domains shown)
VH: QSLEESGGRLVTPGTPLTLTCTASGFSLSSHSLGWVRQAPGKGLEWIGDIRSGGSAYYANWAKGRFTISRTSTTVALKMTSLTTEDTATYFCTRTNGPSDLTNRLDLWGQGTLVTVSS
VL: QVLTQTPSSVSAAVGGTVTINCQASQSLYNNENLAWFQQKPGQPPKRLIYGASTLASGVSSRFKGSGSGTQFTLTIGDVQCDDAAIYYCLGEFSCGSADCFAFGGGTEVVVK
B2: humanized antibody #5 (antibody, V domains shown)
VH: EVQLVESGGGLVQPGGSLRLSCAASGFSLSSHSLGWVRQAPGKGLEWIGDIRSGGSAYYANWAKGRFTISRDNSKNTLYLQMNSLRAEDTAVYFCTRTNGPSDLTNRLDLWGQGTLVTVSS
VL: EQVLTQSPSSLSASVGDRVTINCQASQSLYNNENLAWFQQKPGKVPKRLIYGASTLASGVSSRFSGSGSGTEFTLTISNLQPEDFAIYYCLGEFSCGSADCFAFGGGTKVEIK
B3: humanized antibody #9 (antibody, V domains shown)
VH: B2 VH with V2Q, Q3S, F94Y
VL: B2 VL with E1D, Q2I, N79S, P82C
B4: humanized antibody #8 (antibody, V domains shown)
VH: QSLVESGGGLVQPGGSLRLSCAASGFSLSSHSLGWVRQAPGKGLEWIGDIRSGGSAYYANWAKGRFTISRTSSKNTVYLQMNSLRAEDTAVYFCTRTNGPSDLTNRLDLWGQGTLVTVSS
VL: QVLTQSPSSLSASVGDRVTINCQASQSLYNNENLAWFQQKPGKVPKRLIYGASTLASGVSSRFSGSGSGTEFTLTISSLQCEDFAIYYCLGEFSCGSADCFAFGGGTKVEIK

Target: T1, CAPRIN-1 protein expressed on the …
Experiment: cell-based or functional assay

Row | Binder | ADCC cytotoxic activity (51Cr release) on 22Rv1 [%] | ADCC cytotoxic activity (51Cr release) on A-673 [%] | ADCC cytotoxic activity (51Cr release) on BT-474 [%] | ADCC cytotoxic activity (51Cr release) on Caki-2 [%] | ADCC cytotoxic activity (51Cr release) on FaDu [%] | ADCC cytotoxic activity (51Cr release) on G-361 [%] | ADCC cytotoxic activity (51Cr release) on HEC-1-A [%] | ADCC cytotoxic activity (51Cr release) on HT-29 [%] | ADCC cytotoxic activity (51Cr release) on HT-1080 [%] | ADCC cytotoxic activity (51Cr release) on HT-1376 [%] | ADCC cytotoxic activity (51Cr release) on Hep3B [%] | ADCC cytotoxic activity (51Cr release) on IM-9 [%] | ADCC cytotoxic activity (51Cr release) on MDA-MB-361 [%] | ADCC cytotoxic activity (51Cr release) on NCI-H2452 [%] | ADCC cytotoxic activity (51Cr release) on NCI-N87 [%] | ADCC cytotoxic activity (51Cr release) on NT/D1 [%] | ADCC cytotoxic activity (51Cr release) on OCI-AML5 [%] | ADCC cytotoxic activity (51Cr release) on OE33 [%] | ADCC cytotoxic activity (51Cr release) on Panc10.5 [%] | ADCC cytotoxic activity (51Cr release) on QG56 [%] | also measured
1 | B1 | ≥ 38 | ≥ 40 | ≥ 46 | ≥ 26 | ≥ 35 | ≥ 15 | ≥ 40 | ≥ 35 | ≥ 20 | ≥ 28 | ≥ 21 | ≥ 27 | ≥ 40 | ≥ 31 | ≥ 34 | ≥ 25 | ≥ 15 | ≥ 30 | ≥ 24 | ≥ 38 | ADCC cytotoxic activity (51Cr release) on RD-ES: ≥ 31%; ADCC cytotoxic activity (51Cr release) on RPM11666: ≥ 30%; ADCC cytotoxic activity (51Cr release) on Ramos: ≥ 15%; ADCC cytotoxic activity (51Cr release) on SKOV3: ≥ 27%; ADCC cytotoxic activity (51Cr release) on T24: ≥ 30%; ADCC cytotoxic activity (51Cr release) on TGBC14TKB: ≥ 25%; ADCC cytotoxic activity (51Cr release) on TT: ≥ 30%; ADCC cytotoxic activity (51Cr release) on U-87MG: ≥ 24%
2 | B2 | ≥ 45 | ≥ 46 | ≥ 50 | ≥ 33 | ≥ 40 | ≥ 21 | ≥ 45 | ≥ 40 | ≥ 25 | ≥ 40 | ≥ 25 | ≥ 30 | ≥ 45 | ≥ 39 | ≥ 38 | ≥ 30 | ≥ 18 | ≥ 33 | ≥ 30 | ≥ 42 | ADCC cytotoxic activity (51Cr release) on RD-ES: ≥ 40%; ADCC cytotoxic activity (51Cr release) on RPM11666: ≥ 36%; ADCC cytotoxic activity (51Cr release) on Ramos: ≥ 18%; ADCC cytotoxic activity (51Cr release) on SKOV3: ≥ 31%; ADCC cytotoxic activity (51Cr release) on T24: ≥ 33%; ADCC cytotoxic activity (51Cr release) on TGBC14TKB: ≥ 30%; ADCC cytotoxic activity (51Cr release) on TT: ≥ 35%; ADCC cytotoxic activity (51Cr release) on U-87MG: ≥ 29%
3 | B3 | ≥ 38 | ≥ 40 | ≥ 46 | ≥ 26 | ≥ 35 | ≥ 15 | ≥ 40 | ≥ 35 | ≥ 20 | ≥ 28 | ≥ 21 | ≥ 27 | ≥ 40 | ≥ 31 | ≥ 34 | ≥ 25 | ≥ 15 | ≥ 30 | ≥ 24 | ≥ 38 | ADCC cytotoxic activity (51Cr release) on RD-ES: ≥ 31%; ADCC cytotoxic activity (51Cr release) on RPM11666: ≥ 30%; ADCC cytotoxic activity (51Cr release) on Ramos: ≥ 15%; ADCC cytotoxic activity (51Cr release) on SKOV3: ≥ 27%; ADCC cytotoxic activity (51Cr release) on T24: ≥ 30%; ADCC cytotoxic activity (51Cr release) on TGBC14TKB: ≥ 25%; ADCC cytotoxic activity (51Cr release) on TT: ≥ 30%; ADCC cytotoxic activity (51Cr release) on U-87MG: ≥ 24%
4 | B4 | ≥ 38 | ≥ 40 | ≥ 46 | ≥ 26 | ≥ 35 | ≥ 15 | ≥ 40 | ≥ 35 | ≥ 20 | ≥ 28 | ≥ 21 | ≥ 27 | ≥ 40 | ≥ 31 | ≥ 34 | ≥ 25 | ≥ 15 | ≥ 30 | ≥ 24 | ≥ 38 | ADCC cytotoxic activity (51Cr release) on RD-ES: ≥ 31%; ADCC cytotoxic activity (51Cr release) on RPM11666: ≥ 30%; ADCC cytotoxic activity (51Cr release) on Ramos: ≥ 15%; ADCC cytotoxic activity (51Cr release) on SKOV3: ≥ 27%; ADCC cytotoxic activity (51Cr release) on T24: ≥ 30%; ADCC cytotoxic activity (51Cr release) on TGBC14TKB: ≥ 25%; ADCC cytotoxic activity (51Cr release) on TT: ≥ 30%; ADCC cytotoxic activity (51Cr release) on U-87MG: ≥ 24%
